From patent US20220042026A1 (UNIVERSITY COURT OF THE UNIVERSITY OF GLASGOW, published 2022) come the findings set out here.

The series concerns the molecule itself. The series is described as follows: immunoblot of unboiled N. benthamiana leaf extract, SDS-PAGE, anti-Kcv detection. A general note: Immunoblotting shows a protein as a band on a membrane.

B1: Blue Light-INduced K+ channel 1 (BLINK1) (other)
chain: MGCTVSAELATTLERIEKNFVITDPRLPDNPIIFASDSFLQLTEYSREEILGRNCRFLQGPETDRATVRKIRDAIDNQTEVTVQLINYTKSGKKFWNLFHLQPMRDQKGDVQYFIGVQLDGTEHVRDAAEREGVMLIKKTAEVFSKFLTRTEPFMIHLFILAMFVMIYKFFPGGFENNFSVANPDKKASWIDCIYFGVTTHSTVGFGDILPKTTGAKLCTIAHIVTVFFIVLTL
notes: Expressed transiently under the CaMV 35S promoter in N. benthamiana leaves; Unboiled total protein extract was run on SDS-PAGE; The tetramer was detected, with an expected Mw of 106.5 kDa; also called synthetic, blue light-gated K+ channel
As for B1, the binding result is recorded as “binds”.
